Data published in US20260286413A1, “HYALURONAN SYNTHESIS, SECRETION AND LENGTH CONTROL” (UNIVERSITY OF VIRGINIA, priority 2023, published 2026).

Legend:
X1HAS1 [1] = experiment: Substrate turnover rate quantification (UDP release, enzyme-coupled assay); format: biochemical, Xenopus laevis; details: UDP release; for substrate turnover rate / catalytic rate relative to WT: normalized to WT
Experimental: UDP release during HA synthesis was quantified using an enzyme-coupled assay as previously described (10, 13). Depletion of NADH was monitored at 340 nm every 60 s for 3 hours at 37° C. in a SpectraMax instrument. The raw data was processed in MS Excel and a linear phase of each reaction was determined. The rate of NADH depletion was converted to pmoles of UDP released using a UDP standardized plot (FIG. S1C) for Michaelis-Menten constant determination using GraphPad Prism. For substrate turnover rate quantification of X1HAS1 mutants, pmoles of released UDP were converted to the number of corresponding substrate turnovers per molecule of X1HAS1, per minute. Data is presented relative to wild type activity. All experiments were performed in four to eight replicates and error bars represent standard deviation from the means.
HAS transfers the UDP-activated glycosyl unit (the donor sugar) to the non-reducing end of the nascent HA polymer (the acceptor sugar). This reaction generates UDP and elongated HA as reaction products (FIG. 1A). Catalytic activity can be assessed by monitoring the release of UDP in an enzyme-coupled reaction, as previously described (10, 13), or quantifying HA, either radiometrically or by dye staining following electrophoresis.

X1HAS1 [2] = experiment: Electrophoretic HA size determination (agarose gel, Stains-all) of in vitro synthesized HA; format: biochemical, Xenopus laevis; details: for HA product versus WT: short and long reactions (1 h or 8 h), not distinguished
Experimental: To assess the size of HA synthesized by X1HAS1, similar reaction conditions were applied to the ones described above. […] […] Controls were carried out by digesting the synthesized polymers with hyaluronidase. Synthesis reactions were mixed with SDS-PAGE loading dye and applied to a 1% agarose gel (Ultra-pure agarose, Invitrogen) casted in an Owl B2 system (ThermoFisher). […] After the run, the gel was equilibrated in 50% ethanol for 1.5 h and subjected to staining in 0.05% Stains-all (Sigma) in 50% ethanol overnight under light-protection. Post-staining background was reduced by soaking the gel in 20% ethanol for 3-7 days in the dark. The migration of the synthesized HA species was compared to HA standards from Streptococcus equi (Sigma), as well as enzymatically generated ladders: HA LoLadder and HA HiLadder (Hyalose).

B1: W491A: X1HAS1 mutant, Trp491 of WGTSGRK/R motif replaced with Ala (protein, UniProt P13563 1-588, looked up, variant W491A)
Hyaluronan synthase 1: MKEKAAETMEIPEGIPKDLEPKHPTLWRIIYYSFGVVLLATITAAYVAEFQVLKHEAILFSLGLYGLAMLLHLMMQSLFAFLEIRRVNKSELPCSFKKTVALTIAGYQENPEYLIKCLESCKYVKYPKDKLKIILVIDGNTEDDAYMMEMFKDVFHGEDVGTYVWKGNYHTVKKPEETNKGSCPEVSKPLNEDEGINMVEELVRNKRCVCIMQQWGGKREVMYTAFQAIGTSVDYVQVCDSDTKLDELATVEMVKVLESNDMYGAVGGDVRILNPYDSFISFMSSLRYWMAFNVERACQSYFDCVSCISGPLGMYRNNILQVFLEAWYRQKFLGTYCTLGDDRHLTNRVLSMGYRTKYTHKSRAFSETPSLYLRWLNQQTRWTKSYFREWLYNAQWWHKHHIWMTYESVVSFIFPFFITATVIRLIYAGTIWNVVWLLLCIQIMSLFKSIYACWLRGNFIMLLMSLYSMLYMTGLLPSKYFALLTLNKTGAGTSGRKKIVGNYMPILPLSIWAAVLCGGVGYSIYMDCQNDWSTPEKQKEMYHLLYGCVGYVMYWVIMAVMYWVWVKRCCRKRSQTVTLVHDIPDMCV
substrate turnover / catalytic activity compared to WT (X1HAS1 [1]): abolished
HA product versus WT, short reaction (X1HAS1 [2]): abolishes HA biosynthesis

B2: K218A: X1HAS1 mutant, Lys218 replaced with Ala (protein, UniProt P13563 1-588, looked up, variant K218A)
Hyaluronan synthase 1: MKEKAAETMEIPEGIPKDLEPKHPTLWRIIYYSFGVVLLATITAAYVAEFQVLKHEAILFSLGLYGLAMLLHLMMQSLFAFLEIRRVNKSELPCSFKKTVALTIAGYQENPEYLIKCLESCKYVKYPKDKLKIILVIDGNTEDDAYMMEMFKDVFHGEDVGTYVWKGNYHTVKKPEETNKGSCPEVSKPLNEDEGINMVEELVRNKRCVCIMQQWGGAREVMYTAFQAIGTSVDYVQVCDSDTKLDELATVEMVKVLESNDMYGAVGGDVRILNPYDSFISFMSSLRYWMAFNVERACQSYFDCVSCISGPLGMYRNNILQVFLEAWYRQKFLGTYCTLGDDRHLTNRVLSMGYRTKYTHKSRAFSETPSLYLRWLNQQTRWTKSYFREWLYNAQWWHKHHIWMTYESVVSFIFPFFITATVIRLIYAGTIWNVVWLLLCIQIMSLFKSIYACWLRGNFIMLLMSLYSMLYMTGLLPSKYFALLTLNKTGWGTSGRKKIVGNYMPILPLSIWAAVLCGGVGYSIYMDCQNDWSTPEKQKEMYHLLYGCVGYVMYWVIMAVMYWVWVKRCCRKRSQTVTLVHDIPDMCV
substrate turnover / catalytic activity compared to WT (X1HAS1 [1]): abolishes
HA product versus WT (X1HAS1 [2]): abolishes

B3: T493A: X1HAS1 mutant, Thr493 replaced with Ala (protein, UniProt P13563 1-588, looked up, variant T493A)
Hyaluronan synthase 1: MKEKAAETMEIPEGIPKDLEPKHPTLWRIIYYSFGVVLLATITAAYVAEFQVLKHEAILFSLGLYGLAMLLHLMMQSLFAFLEIRRVNKSELPCSFKKTVALTIAGYQENPEYLIKCLESCKYVKYPKDKLKIILVIDGNTEDDAYMMEMFKDVFHGEDVGTYVWKGNYHTVKKPEETNKGSCPEVSKPLNEDEGINMVEELVRNKRCVCIMQQWGGKREVMYTAFQAIGTSVDYVQVCDSDTKLDELATVEMVKVLESNDMYGAVGGDVRILNPYDSFISFMSSLRYWMAFNVERACQSYFDCVSCISGPLGMYRNNILQVFLEAWYRQKFLGTYCTLGDDRHLTNRVLSMGYRTKYTHKSRAFSETPSLYLRWLNQQTRWTKSYFREWLYNAQWWHKHHIWMTYESVVSFIFPFFITATVIRLIYAGTIWNVVWLLLCIQIMSLFKSIYACWLRGNFIMLLMSLYSMLYMTGLLPSKYFALLTLNKTGWGASGRKKIVGNYMPILPLSIWAAVLCGGVGYSIYMDCQNDWSTPEKQKEMYHLLYGCVGYVMYWVIMAVMYWVWVKRCCRKRSQTVTLVHDIPDMCV
substrate turnover rate / catalytic rate relative to WT (X1HAS1 [1]): 20-25%
HA product versus WT, short reaction (X1HAS1 [2]): exceeding the size of the WT product

B4: K218R: X1HAS1 mutant, Lys218 replaced with Arg (protein, UniProt P13563 1-588, looked up, variant K218R)
Hyaluronan synthase 1: MKEKAAETMEIPEGIPKDLEPKHPTLWRIIYYSFGVVLLATITAAYVAEFQVLKHEAILFSLGLYGLAMLLHLMMQSLFAFLEIRRVNKSELPCSFKKTVALTIAGYQENPEYLIKCLESCKYVKYPKDKLKIILVIDGNTEDDAYMMEMFKDVFHGEDVGTYVWKGNYHTVKKPEETNKGSCPEVSKPLNEDEGINMVEELVRNKRCVCIMQQWGGRREVMYTAFQAIGTSVDYVQVCDSDTKLDELATVEMVKVLESNDMYGAVGGDVRILNPYDSFISFMSSLRYWMAFNVERACQSYFDCVSCISGPLGMYRNNILQVFLEAWYRQKFLGTYCTLGDDRHLTNRVLSMGYRTKYTHKSRAFSETPSLYLRWLNQQTRWTKSYFREWLYNAQWWHKHHIWMTYESVVSFIFPFFITATVIRLIYAGTIWNVVWLLLCIQIMSLFKSIYACWLRGNFIMLLMSLYSMLYMTGLLPSKYFALLTLNKTGWGTSGRKKIVGNYMPILPLSIWAAVLCGGVGYSIYMDCQNDWSTPEKQKEMYHLLYGCVGYVMYWVIMAVMYWVWVKRCCRKRSQTVTLVHDIPDMCV
substrate turnover / catalytic activity compared to WT (X1HAS1 [1]): abolishes
HA product versus WT (X1HAS1 [2]): abolishes

B5: T493S: X1HAS1 mutant, Thr493 replaced with Ser (protein, UniProt P13563 1-588, looked up, variant T493S)
Hyaluronan synthase 1: MKEKAAETMEIPEGIPKDLEPKHPTLWRIIYYSFGVVLLATITAAYVAEFQVLKHEAILFSLGLYGLAMLLHLMMQSLFAFLEIRRVNKSELPCSFKKTVALTIAGYQENPEYLIKCLESCKYVKYPKDKLKIILVIDGNTEDDAYMMEMFKDVFHGEDVGTYVWKGNYHTVKKPEETNKGSCPEVSKPLNEDEGINMVEELVRNKRCVCIMQQWGGKREVMYTAFQAIGTSVDYVQVCDSDTKLDELATVEMVKVLESNDMYGAVGGDVRILNPYDSFISFMSSLRYWMAFNVERACQSYFDCVSCISGPLGMYRNNILQVFLEAWYRQKFLGTYCTLGDDRHLTNRVLSMGYRTKYTHKSRAFSETPSLYLRWLNQQTRWTKSYFREWLYNAQWWHKHHIWMTYESVVSFIFPFFITATVIRLIYAGTIWNVVWLLLCIQIMSLFKSIYACWLRGNFIMLLMSLYSMLYMTGLLPSKYFALLTLNKTGWGSSGRKKIVGNYMPILPLSIWAAVLCGGVGYSIYMDCQNDWSTPEKQKEMYHLLYGCVGYVMYWVIMAVMYWVWVKRCCRKRSQTVTLVHDIPDMCV
substrate turnover rate / catalytic rate relative to WT (X1HAS1 [1]): 20-25%
HA product versus WT, short reaction (X1HAS1 [2]): exceeding the size of the WT product
HA size difference versus WT product (X1HAS1 [2]; from differences in electrophoretic mobility): up to 0.5 MDa

B6: W491F: X1HAS1 mutant, Trp491 replaced with Phe (protein, UniProt P13563 1-588, looked up, variant W491F)
Hyaluronan synthase 1: MKEKAAETMEIPEGIPKDLEPKHPTLWRIIYYSFGVVLLATITAAYVAEFQVLKHEAILFSLGLYGLAMLLHLMMQSLFAFLEIRRVNKSELPCSFKKTVALTIAGYQENPEYLIKCLESCKYVKYPKDKLKIILVIDGNTEDDAYMMEMFKDVFHGEDVGTYVWKGNYHTVKKPEETNKGSCPEVSKPLNEDEGINMVEELVRNKRCVCIMQQWGGKREVMYTAFQAIGTSVDYVQVCDSDTKLDELATVEMVKVLESNDMYGAVGGDVRILNPYDSFISFMSSLRYWMAFNVERACQSYFDCVSCISGPLGMYRNNILQVFLEAWYRQKFLGTYCTLGDDRHLTNRVLSMGYRTKYTHKSRAFSETPSLYLRWLNQQTRWTKSYFREWLYNAQWWHKHHIWMTYESVVSFIFPFFITATVIRLIYAGTIWNVVWLLLCIQIMSLFKSIYACWLRGNFIMLLMSLYSMLYMTGLLPSKYFALLTLNKTGFGTSGRKKIVGNYMPILPLSIWAAVLCGGVGYSIYMDCQNDWSTPEKQKEMYHLLYGCVGYVMYWVIMAVMYWVWVKRCCRKRSQTVTLVHDIPDMCV
substrate turnover / catalytic activity compared to WT (X1HAS1 [1]): reduced
HA product versus WT, short reaction (X1HAS1 [2]): lower molecular weight product

B7: R381K: X1HAS1 mutant, Arg381 replaced with Lys (protein, UniProt P13563 1-588, looked up, variant R381K)
Hyaluronan synthase 1: MKEKAAETMEIPEGIPKDLEPKHPTLWRIIYYSFGVVLLATITAAYVAEFQVLKHEAILFSLGLYGLAMLLHLMMQSLFAFLEIRRVNKSELPCSFKKTVALTIAGYQENPEYLIKCLESCKYVKYPKDKLKIILVIDGNTEDDAYMMEMFKDVFHGEDVGTYVWKGNYHTVKKPEETNKGSCPEVSKPLNEDEGINMVEELVRNKRCVCIMQQWGGKREVMYTAFQAIGTSVDYVQVCDSDTKLDELATVEMVKVLESNDMYGAVGGDVRILNPYDSFISFMSSLRYWMAFNVERACQSYFDCVSCISGPLGMYRNNILQVFLEAWYRQKFLGTYCTLGDDRHLTNRVLSMGYRTKYTHKSRAFSETPSLYLRWLNQQTKWTKSYFREWLYNAQWWHKHHIWMTYESVVSFIFPFFITATVIRLIYAGTIWNVVWLLLCIQIMSLFKSIYACWLRGNFIMLLMSLYSMLYMTGLLPSKYFALLTLNKTGWGTSGRKKIVGNYMPILPLSIWAAVLCGGVGYSIYMDCQNDWSTPEKQKEMYHLLYGCVGYVMYWVIMAVMYWVWVKRCCRKRSQTVTLVHDIPDMCV
substrate turnover / catalytic activity compared to WT (X1HAS1 [1]): cannot be replaced
